Measurements taken from paper PMC11227718.

How the values were obtained:
[1] = cycloheximide chase, immunoblot
[2] = immunoblot of endogenous CCDC88C, BT549; conditions: glycan gained; control: empty vector
[3] = immunoblot of endogenous CCDC88C; conditions: glycan lost; control: negative control siRNA

Row | Substance | degradation_or_half_life ([1]; glycan gained, control: empty vector) | expression_or_secretion [2] | degradation_or_half_life ([1]; glycan lost, control: negative control siRNA) | expression_or_secretion [3]
1 | Coiled-coil domain containing 88C (CCDC88C, Daple): GALNT6 overexpression | increases | increases | – | –
2 | Coiled-coil domain containing 88C (CCDC88C, Daple): si-GALNT6 | – | – | decreases | decreases
